{"source": "patent US20110166034A1", "key": {"[1]": {"target": "TCR of murine OT1 lymphocytes (specific for OVA257-264)", "assay": "cell-based or functional assay"}, "[2]": {"target": "F5 MART-1 TCR, on Jurkat^α-MART-1 cells or on transduced human PBMCs", "assay": "immuno-PCR of the DNA tag after staining of cells, gel electrophoresis"}, "[3]": {"target": "F5 MART-1 TCR, on Jurkat^α-MART-1 cells or on transduced human PBMCs", "assay": "multiplexed cell sorting of a 1:1 cell mix; the number is an average over spots A and B"}, "[4]": {"target": "TCR specific for tyrosinase368-376, on Jurkat^α-Tyr cells", "assay": "immuno-PCR of the DNA tag after staining of cells, gel electrophoresis (non-cognate control)"}, "[5]": {"target": "F5 MART-1 TCR, on Jurkat^α-MART-1 cells or on transduced human PBMCs", "assay": "T cell capture density against the amount of p/MHC spotted on the covalent surface, Hill fit"}, "[6]": {"target": "TCR specific for tyrosinase368-376, on Jurkat^α-Tyr cells", "assay": "cell capture on a NACS array, mean of three spots of about 600 µm"}, "[7]": {"target": "TCR specific for tyrosinase368-376, on Jurkat^α-Tyr cells", "assay": "multiplexed cell sorting of a 1:1 cell mix; the number is an average over spots A and B"}}, "data": [{"substance": "H-2Kb-OVA257-264 ssDNA-p/MHC tetramers (SAC scaffold, encoded to strands A', B' and C') (from UniProt P01901 22-305) (peptide-MHC)", "values": [{"measurement": "IFN-y clusters (ELISPOT-type sandwich assay on the array)", "setting": "[1]", "value": 3, "unit": "clusters"}]}, {"substance": "MART-1 26-35/HLA-A2.1 ssDNA-p/MHC tetramer on the SAC scaffold (from UniProt P61769 21-119) (peptide-MHC)", "values": [{"measurement": "PCR cycles to detection of the DNA tag", "setting": "[2]", "value": "< 15", "unit": "cycles"}, {"measurement": "average density (T cells/spot)", "setting": "[3]", "value": 661, "unit": "T cells/spot"}, {"measurement": "PCR cycles to detection of the DNA tag", "setting": "[4]", "value": 10, "unit": "cycles"}]}, {"substance": "fluorescent MART-1 SA-PE tetramer (MART-1 26-35 loaded onto HLA-A2.1 MHC molecules) (from UniProt P61769 21-119) (peptide-MHC)", "values": [{"measurement": "K1/2 (p/MHC monomer at half max)", "setting": "[5]", "value": 5.7, "unit": "ng"}]}, {"substance": "tyrosinase368-376/HLA-A2.1 ssDNA-p/MHC tetramer on the SAC (streptavidin-cysteine) scaffold (from UniProt P61769 21-119) (peptide-MHC)", "values": [{"measurement": "mean binding capacity (cells per spot) (T cells per spot)", "setting": "[6]", "value": 1490}, {"measurement": "average density (T cells/spot)", "setting": "[7]", "value": 661, "unit": "T cells/spot"}]}]}
